Molecular target: murine urokinase-type plasminogen activator (murine, UniProt P06869)
Test: […]

Sequence of murine urokinase-type plasminogen activator (P06869 21-433): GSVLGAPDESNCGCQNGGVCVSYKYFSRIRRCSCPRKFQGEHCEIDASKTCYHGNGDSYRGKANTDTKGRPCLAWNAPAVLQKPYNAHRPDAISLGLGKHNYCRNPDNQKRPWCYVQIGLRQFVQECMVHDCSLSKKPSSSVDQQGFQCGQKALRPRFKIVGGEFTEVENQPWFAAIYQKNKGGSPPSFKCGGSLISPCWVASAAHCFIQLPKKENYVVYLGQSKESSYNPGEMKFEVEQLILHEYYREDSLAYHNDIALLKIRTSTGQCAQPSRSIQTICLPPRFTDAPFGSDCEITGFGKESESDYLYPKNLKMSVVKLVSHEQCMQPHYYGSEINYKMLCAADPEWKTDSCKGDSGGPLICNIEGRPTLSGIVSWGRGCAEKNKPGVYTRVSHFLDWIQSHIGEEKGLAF

B1: nb22 nanobody (VHH)
VHH: QVQLQESGGGLVQAGGSLRLSCAASGRTFSSYVMGWFRQAPGKEREFVAAISWSGGSTNYADSVKGRFTISRDNAKNTVYLQMNSLKPEDTAVYYCAADLASSRDVSSWYWGQGTQVTVSS
**Q.** Does B1 bind?
**A.** binds

Source: paper PMC10184537 (ACS Nano, 2023)
